The target in one assay is T1, HDX_E2 CD73 chimera (human; chicken, UniProt P21589 27-553).
T1 construct: also called KO_182-187
T1 chain: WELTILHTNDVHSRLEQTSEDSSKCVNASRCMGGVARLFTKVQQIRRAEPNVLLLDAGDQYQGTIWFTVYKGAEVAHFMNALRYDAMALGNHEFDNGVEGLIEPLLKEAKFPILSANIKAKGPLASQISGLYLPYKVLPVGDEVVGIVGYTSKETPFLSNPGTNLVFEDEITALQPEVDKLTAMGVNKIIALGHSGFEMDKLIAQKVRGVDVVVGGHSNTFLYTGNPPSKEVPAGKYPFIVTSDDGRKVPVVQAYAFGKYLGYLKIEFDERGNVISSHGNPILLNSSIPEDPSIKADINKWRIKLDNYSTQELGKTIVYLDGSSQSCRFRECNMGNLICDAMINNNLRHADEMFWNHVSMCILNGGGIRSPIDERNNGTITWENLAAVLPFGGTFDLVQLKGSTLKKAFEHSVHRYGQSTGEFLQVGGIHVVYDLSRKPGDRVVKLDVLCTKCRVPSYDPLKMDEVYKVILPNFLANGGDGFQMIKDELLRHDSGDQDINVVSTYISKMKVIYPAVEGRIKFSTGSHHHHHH
Put plainly: SPR (ProteOn), CD73 variant immobilized; 2:1 fit. On the procedure: (§1) Binding of MEDI9447 to wild-type and mutant CD73 proteins was measured by surface plasmon resonance (SPR) using a ProteOn instrument (BioRad). CD73 crude cell supernatant protein samples were diluted to 3 µg/ml in PBS, 0.005% Tween-20, pH 7.4 (BioRad) and immobilized to ~400 RU on a HTG tris-NTA sensor chip (BioRad) pre-activated with 10 mM NiSO₄, 10 mM MES, pH 6.0 (BioRad). An equivalently diluted crude cell supernatant sample from non-transfected cells was included as a reference channel control. Sensorgrams were recorded by flowing two-fold dilutions of MEDI9447 prepared in PBS, 0.005% Tween-20, pH 7.4, ranging from 5 nM to 0.31 nM. […] Antibody binding was measured at a flow rate of 100 µL/min with a 3 min association phase and 20 min dissociation phase. The sensor chip surface was regenerated between each run by an 800 s injection of 300 mM EDTA, pH 8.5 (BioRad) at a flow rate of 30 µL/min. Binding kinetics were analyzed using the ProteOn data analysis software. Double referencing was performed and, unless noted otherwise, a 1:1 Langmuir binding model was utilized to fit the data. Some CD73 variants containing mutations within the amino acid region 171-188 fit poorly to a 1:1 model (i.e., Chi² values >10% of Rmax). Where noted, these variants were fit with a heterogenous antigen (2:1) model. […] Due to the assay format (antigen immobilized) and the dimeric state of CD73, KD values may be exaggerated due to avidity effects. However, it is not anticipated that this impacts ranking of MEDI9447 binding to the different CD73 variants.

Assay [1] addresses T2, Human CD73 N185G, His-tagged (human, UniProt P21589 27-549).
T2 sequence: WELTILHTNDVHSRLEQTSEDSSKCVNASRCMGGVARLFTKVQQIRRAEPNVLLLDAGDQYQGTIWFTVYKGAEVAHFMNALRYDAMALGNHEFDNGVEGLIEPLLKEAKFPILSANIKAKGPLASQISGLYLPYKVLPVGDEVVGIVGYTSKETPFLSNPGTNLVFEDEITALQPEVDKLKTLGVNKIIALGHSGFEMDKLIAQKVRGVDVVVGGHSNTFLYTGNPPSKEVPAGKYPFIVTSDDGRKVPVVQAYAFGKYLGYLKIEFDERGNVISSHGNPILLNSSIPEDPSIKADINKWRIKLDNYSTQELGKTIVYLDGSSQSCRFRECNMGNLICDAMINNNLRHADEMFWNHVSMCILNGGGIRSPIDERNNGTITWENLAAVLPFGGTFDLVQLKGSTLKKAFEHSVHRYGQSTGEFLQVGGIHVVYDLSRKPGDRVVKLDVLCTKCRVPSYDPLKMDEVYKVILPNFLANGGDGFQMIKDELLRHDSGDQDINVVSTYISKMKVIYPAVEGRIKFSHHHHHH
The assay is described as follows: SPR (ProteOn), CD73 variant immobilized; 2:1 fit. How it is done:
as §1

Assay [2] has as its target T3, Recombinant soluble wild-type human CD73 with C-terminal 6x-histidine tag (human, UniProt P21589 27-549).
T3 construct: dimer in solution; also called sCD73; WT huCD73
T3 sequence: T2 sequence with G185N
Put plainly: SPR (ProteOn), CD73 immobilized on HTG chip.

As a reminder, the Kd is the free concentration of one partner at which half of the binding sites on the other are occupied at equilibrium, for simple one-to-one binding. A high value points to weaker binding. As a reminder, the koff is the first-order rate constant of dissociation. The term kon denotes the rate constant with which the complex forms.

Positions count from the first letter of the chain named. In names and notes the source's numbering stands.

B1: MEDI9447 (antibody, human IgG1, lambda, V domains shown)
VH: EVQLLESGGGLVQPGGSLRLSCAASGFTFSSYAYSWVRQAPGKGLEWVSAISGSGGRTYYADSVKGRFTISRDNSKNTLYLQMNSLRAEDTAVYYCARLGYGRVDEWGRGTLVTVSS
VL: QSVLTQPPSASGTPGQRVTISCSGSLSNIGRNPVNWYQQLPGTAPKLLIYLDNLRLSGVPDRFSGSKSGTSASLAISGLQSEDEADYYCATWDDSHPGWTFGGGTKLTVLG
notes: Human IgG1-TM (L234F, L235E, P331S), lambda light chain; also called clone 10.3 antibody; 73combo3
The molecule B1 registered a Kd in the assay with HDX_E2 CD73 chimera of 2.83 nM. In addition, the koff is 0.0162 s⁻¹ in the assay with HDX_E2 CD73 chimera, 0.000245 s⁻¹ in assay [1] and 1.94e-05 s⁻¹ in assay [2]. In addition, the figures for the kon (with HDX_E2 CD73 chimera; in assay [1]; in assay [2]) were 5.73e+06 M⁻¹ s⁻¹, 9.11e+06 M⁻¹ s⁻¹ and 4.63e+06 M⁻¹ s⁻¹, respectively.
